Assay [1] deals with T1, human IL-18Rβ ECD Fc fusion (118-AP-100, R&D Systems) (human, UniProt O95256 20-356).
T1 construct: Bought protein; also called hIL-18Rβ; recombinant human IL-18Rb; not shown: Fc tag of the bought fusion protein, not described
T1 sequence: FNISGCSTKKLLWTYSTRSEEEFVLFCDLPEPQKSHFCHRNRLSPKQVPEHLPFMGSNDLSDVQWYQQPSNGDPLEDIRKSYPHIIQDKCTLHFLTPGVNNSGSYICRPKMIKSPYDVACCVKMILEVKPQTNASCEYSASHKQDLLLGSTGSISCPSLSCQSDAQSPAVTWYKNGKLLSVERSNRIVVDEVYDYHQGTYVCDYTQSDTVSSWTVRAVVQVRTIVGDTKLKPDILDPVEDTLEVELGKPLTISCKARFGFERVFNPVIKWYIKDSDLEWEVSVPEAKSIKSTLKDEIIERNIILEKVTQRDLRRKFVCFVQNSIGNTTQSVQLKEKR
Kind of assay: biolayer interferometry (BLI) after legend paragraph 36; drawn table, head KD (nM), Human receptor. On the technique in general: In BLI a coated tip is dipped into the sample, and binding shifts an interference pattern.

For assay [2], the target named is T1, human IL-18Rβ ECD Fc fusion …. Briefly: biolayer interferometry (BLI) after legend paragraph 36; drawn table, head kd (10^-4 s^-1), Human receptor.
Assay [3] has the same target. Briefly: biolayer interferometry (BLI) after legend paragraph 36; drawn table, head ka (10^4 M^-1 s^-1), Human receptor.
For assay [4] the target is unchanged. Briefly: SPR (Table 5 title), Fab on human receptor.
The target is the same in assay [5]. Briefly: multipoint direct binding ELISA (drawn table, column EC50 (nM)). A general note: An ELISA detects its analyte on a solid surface through an enzyme-linked reagent.
Assay [6] has the same target. Kind of assay: competitive binding ELISA with soluble receptor (drawn table, column IC50 (nM)).
For assay [7] the target is unchanged. Kind of assay: ELISA on recombinant human IL-18Rβ, normalised OD 450 nm, Fab with PBS or with saturating IgG 3131 [bottom plot]. From the text:
(§1) The results are presented in FIG. 9, in which the binding signals for purified. […] Error bars represent standard deviation of replicate measurements.

Assay [8] has the same target. Kind of assay: ELISA on recombinant human IL-18Rβ, normalised OD 450 nm, Fab with PBS or with saturating IgG 3131 [middle plot].
Source text: as §1

The Kd is the constant that tells how readily two partners part at equilibrium. A lower Kd goes with higher affinity. One may read the koff as the rate constant with which the complex falls apart. Read a low koff as slow dissociation. Broadly, the kon is a measure of how fast the partners come together. Read a low kon as slower complex formation. Usually EC50 stands for the concentration that produces a half-maximal response. Low values mean greater potency, high ones weaker potency. The IC50 is the concentration that gives 50% inhibition. Read a low IC50 as higher potency.

B1: Fab A3 (Fab)
heavy: EVQLVESGGGLVQPGGSLRLSCAASGFNLYSSYIHWVRQAPGKGLEWVASIYSSSGYTYYADSVKGRFTISADTSKNTAYLQMNSLRAEDTAVYYCARSVHSYYSSAAYYAMDYWGQGTLVTVSSASTKGPSVFPLAPSSKSTSGGTAALGCLVKDYFPEPVTVSWNSGALTSGVHTFPAVLQSSGLYSLSSVVTVPSSSLGTQTYICNVNHKPSNTKVDKKVEPKSCDKTHT
light: DIQMTQSPSSLSASVGDRVTITCRASQSVSSAVAWYQQKPGKAPKLLIYSASSLYSGVPSRFSGSRSGTDFTLTISSLQPEDFATYYCQQSYFLITFGQGTKVEIKRTVAAPSVFIFPPSDSQLKSGTASVVCLLNNFYPREAKVQWKVDNALQSGNSQESVTEQDSKDSTYSLSSTLTLSKADYEKHKVYACEVTHQGLSSPVTKSFNRGECGGSDYKDDDDK
notes: also called FA3
On to B1, for which the Kd in assay [1] came to 30 nM; in assay [4], 78 nM. The koff in assay [2] worked out at 0.0015 s⁻¹; in assay [4], 0.0016 s⁻¹. Moreover, the results for the kon in assay [3] and in assay [4] were 51000 M⁻¹ s⁻¹ and 20000 M⁻¹ s⁻¹, respectively. Besides, a half-maximal response in assay [5] (EC50) required 86 nM. This molecule came in with an IC50 in assay [6] of 105 nM.

B2: 3131 AM2-36 (Fab, V domains shown)
VH: EVQLVESGGGLVQPGGSLRLSCAASGFNLYYSSMHWVRQAPGKGLEWVASIYSSSGSTSYADSVKGRFTISADTSKNTAYLQMNSLRAEDTAVYYCARSSFSHGYGWYGLDYWGQGTLVTVSS
VL: DIQMTQSPSSLSASVGDRVTITCRASQSVSSAVAWYQQKPGKAPKLLIYSASSLYSGVPSRFSGSRSGTDFTLTISSLQPEDFATYYCQQYGYHYAGLITFGQGTKVEIK
notes: Fab
As for B2, in assay [7], the binding result was “binds”.

B3: 3131 AM2-25 (Fab, V domains shown)
VH: EVQLVESGGGLVQPGGSLRLSCAASGFNLYYSSMHWVRQAPGKGLEWVASIYSSYGYTYYADSVKGRFTISADTSKNTAYLQMNSLRAEDTAVYYCARSSFSHGYGWYGLDYWGQGTLVTVSS
VL: DIQMTQSPSSLSASVGDRVTITCRASQSVSSAVAWYQQKPGKAPKLLIYSASSRDSGVPSRFSGSRSGTDFTLTISSLQPEDFATYYCQQYGYHYAGLITFGQGTKVEIK
notes: Fab
As to B3, the binding result in assay [8] is reported as “binds”.

B4: 3131 AM2-31 (Fab, V domains shown)
VH: EVQLVESGGGLVQPGGSLRLSCAASGFNLYYSSMHWVRQAPGKGLEWVASIYSSYGYTYYADSVKGRFTISADTSKNTAYLQMNSLRAEDTAVYYCARSSFSHGYGWYGLDYWGQGTLVTVSS
VL: DIQMTQSPSSLSASVGDRVTITCRASQSVSSAVAWYQQKPGKAPKLLIYSESSLYSGVPSRFSGSRSGTDFTLTISSLQPEDFATYYCQQYGYHYAGLITFGQGTKVEIK
notes: Fab
For the molecule B4, the binding result in assay [8] was “binds”.

B5: 3131 AM2-26 (Fab, V domains shown)
VH: EVQLVESGGGLVQPGGSLRLSCAASGFNLYYSSMHWVRQAPGKGLEWVASIYSSYGYTYYADSVKGRFTISADTSKNTAYLQMNSLRAEDTAVYYCARSSFSHGYGWYGLDYWGQGTLVTVSS
VL: DIQMTQSPSSLSASVGDRVTITCRASQSVSSAVAWYQQKPGKAPKLLIYSESSLSSGVPSRFSGSRSGTDFTLTISSLQPEDFATYYCQQYGYHYAGLITFGQGTKVEIK
notes: Fab
With B5, the binding result in assay [8] is “binds”.

B6: 3131 AM2-S-T (Fab, V domains shown)
VH: EVQLVESGGGLVQPGGSLRLSCAASGFNLYYSSMHWVRQAPGKGLEWVASIYSSYGYTYYADSVKGRFTISADTSKNTAYLQMNSLRAEDTAVYYCARSSFSHGYGWYGLDYWGQGTLVTVSS
VL: DIQMTQSPSSLSASVGDRVTITCRASQSVSSAVAWYQQKPGKAPKLLIYTASSLYSGVPSRFSGSRSGTDFTLTISSLQPEDFATYYCQQYGYHYAGLITFGQGTKVEIK
notes: Fab
Consider B6, for which, in assay [7], the binding result is given as “binds”.

B7: 3131 AM2-37 (Fab, V domains shown)
VH: EVQLVESGGGLVQPGGSLRLSCAASGFNLYYSSMHWVRQAPGKGLEWVASIYSSSGSTSYADSVKGRFTISADTSKNTAYLQMNSLRAEDTAVYYCARSSFSHGYGWYGLDYWGQGTLVTVSS
VL: DIQMTQSPSSLSASVGDRVTITCRASQSVSSAVAWYQQKPGKAPKLLIYSASSLYSGVPSRFSGSRSGTDFTLTISSLQPEDFATYYCQQYGYHSAGLITFGQGTKVEIK
notes: Fab
Regarding B7, the binding result in assay [7] is listed as “binds”.

B8: 3131 AM2-35 (Fab, V domains shown)
VH: EVQLVESGGGLVQPGGSLRLSCAASGFNLYYSSMHWVRQAPGKGLEWVASIYSSYGYTYYADSVKGRFTISADTSKNTAYLQMNSLRAEDTAVYYCARSSFSHGYGWYGLDYWGQGTLVTVSS
VL: DIQMTQSPSSLSASVGDRVTITCRASQSVSSAVAWYQQKPGKAPKLLIYSASSLYSGVPSRFSGSRSGTDFTLTISSLQPEDFATYYCQQYGYHSAGLITFGQGTKVEIK
notes: Fab
Regarding B8, the binding result in assay [7] is given as “binds”.

B9: 3131 AM2-28 (Fab, V domains shown)
VH: EVQLVESGGGLVQPGGSLRLSCAASGFNLYYSSMHWVRQAPGKGLEWVASIYSSYGYTYYADSVKGRFTISADTSKNTAYLQMNSLRAEDTAVYYCARSSFSHGYGWYGLDYWGQGTLVTVSS
VL: DIQMTQSPSSLSASVGDRVTITCRASQSVSSAVAWYQQKPGKAPKLLIYSRSSDSSGVPSRFSGSRSGTDFTLTISSLQPEDFATYYCQQYGYHYAGLITFGQGTKVEIK
notes: Fab
Regarding B9, in assay [8], the binding result is “binds”.

B10: 3131 AM2-32 (Fab, V domains shown)
VH: EVQLVESGGGLVQPGGSLRLSCAASGFNLYYSSMHWVRQAPGKGLEWVASIYSSYGYTYYADSVKGRFTISADTSKNTAYLQMNSLRAEDTAVYYCARSSFSHGYGWYGLDYWGQGTLVTVSS
VL: DIQMTQSPSSLSASVGDRVTITCRASQSVSSAVAWYQQKPGKAPKLLIYSSSSVYSGVPSRFSGSRSGTDFTLTISSLQPEDFATYYCQQYGYHYAGLITFGQGTKVEIK
notes: Fab
Consider B10, for which the binding result in assay [7] is “binds”.

B11: 3131 AM2-S-Y (Fab, V domains shown)
VH: EVQLVESGGGLVQPGGSLRLSCAASGFNLYYSSMHWVRQAPGKGLEWVASIYSSYGYTYYADSVKGRFTISADTSKNTAYLQMNSLRAEDTAVYYCARSSFSHGYGWYGLDYWGQGTLVTVSS
VL: DIQMTQSPSSLSASVGDRVTITCRASQSVSSAVAWYQQKPGKAPKLLIYYASSLYSGVPSRFSGSRSGTDFTLTISSLQPEDFATYYCQQYGYHYAGLITFGQGTKVEIK
notes: Fab
For the molecule B11, the binding result in assay [7] is recorded as “binds”.

B12: 3131 AM2-33 (Fab, V domains shown)
VH: EVQLVESGGGLVQPGGSLRLSCAASGFNLYYSSMHWVRQAPGKGLEWVASIYSSYGHTSYADSVKGRFTISADTSKNTAYLQMNSLRAEDTAVYYCARSSFSHGYGWYGLDYWGQGTLVTVSS
VL: DIQMTQSPSSLSASVGDRVTITCRASQSVSSAVAWYQQKPGKAPKLLIYSASSLYSGVPSRFSGSRSGTDFTLTISSLQPEDFATYYCQQYGYHYAGLITFGQGTKVEIK
notes: Fab
For the molecule B12, the binding result in assay [7] was “binds”.

B13: 3131 AM2-S-G (Fab, V domains shown)
VH: EVQLVESGGGLVQPGGSLRLSCAASGFNLYYSSMHWVRQAPGKGLEWVASIYSSYGYTYYADSVKGRFTISADTSKNTAYLQMNSLRAEDTAVYYCARSSFSHGYGWYGLDYWGQGTLVTVSS
VL: DIQMTQSPSSLSASVGDRVTITCRASQSVSSAVAWYQQKPGKAPKLLIYGASSLYSGVPSRFSGSRSGTDFTLTISSLQPEDFATYYCQQYGYHYAGLITFGQGTKVEIK
notes: Fab
Take B13: the binding result in assay [7] is reported as “binds”.

B14: 3131 AM2-30 (Fab, V domains shown)
VH: EVQLVESGGGLVQPGGSLRLSCAASGFNLYYSSMHWVRQAPGKGLEWVASIYSSYGYTYYADSVKGRFTISADTSKNTAYLQMNSLRAEDTAVYYCARSSFSHGYGWYGLDYWGQGTLVTVSS
VL: DIQMTQSPSSLSASVGDRVTITCRASQSVSSAVAWYQQKPGKAPKLLIYSASSERSGVPSRFSGSRSGTDFTLTISSLQPEDFATYYCQQYGYHYAGLITFGQGTKVEIK
notes: Fab
Take B14: the binding result in assay [8] is given as “binds”.

B15: 3131 AM2-S-H (Fab, V domains shown)
VH: EVQLVESGGGLVQPGGSLRLSCAASGFNLYYSSMHWVRQAPGKGLEWVASIYSSYGYTYYADSVKGRFTISADTSKNTAYLQMNSLRAEDTAVYYCARSSFSHGYGWYGLDYWGQGTLVTVSS
VL: DIQMTQSPSSLSASVGDRVTITCRASQSVSSAVAWYQQKPGKAPKLLIYHASSLYSGVPSRFSGSRSGTDFTLTISSLQPEDFATYYCQQYGYHYAGLITFGQGTKVEIK
notes: Fab
For B15, the binding result in assay [7] is on record as “binds”.

The values are drawn from patent publication US20240262919A1 (SHANGHAITECH UNIVERSITY, published 2024).
